# In paper PMC12259648:
# Legend:
# [1] = target: 212579 I53HV, I29LV, T40LA, V108LG (human); test: SPR; Biacore 1K+; purified IgG captured (about 100 RU) on anti-human IgG (Fc) on a CM5 chip; Phl p 5 injected at 1.875-60 nM, 25 uL/min, 120 s, 1360 s dissociation; PBS with 0.02% Tween 20; 1:1 Langmuir model
# 212579 T40HN (human) = test: as above
# [2] = target: 212579 I29LV, T40LA, V108LG (human); test: as above
# 212579 I53HV (human) = test: as above
# 212579 G62HS (human) = test: as above
# [3] = target: 212579 T40HN, I53HV, H113HY (human); test: as above
# [4] = target: 212579 T40HN, I29LV, T40LA, V108LG (human); test: as above
# 212579 E38HS (human) = test: as above
# [5] = target: 212579 T40HN, I53HV (human); test: as above
# 212579 H113HY (human) = test: SPR; Biacore 1K+; antibody 212579 H113HY captured from culture supernatant without prior purification on anti-human IgG (Fc) on a CM5 chip; Phl p 5 injected at 1.875-60 nM; PBS with 0.02% Tween 20; 1:1 Langmuir model
substance,measurement,setting,value
Phl p 5.0101 (natural protein),Kd,[1],1.5 nM
same,koff,[1],0.00033 s⁻¹
same,kon,[1],220000 M⁻¹ s⁻¹
same,Kd,212579 T40HN (human),0.49 nM
same,koff,212579 T40HN (human),0.00016 s⁻¹
same,kon,212579 T40HN (human),320000 M⁻¹ s⁻¹
same,Kd,[2],1.5 nM
same,koff,[2],0.00035 s⁻¹
same,kon,[2],230000 M⁻¹ s⁻¹
same,Kd,212579 I53HV (human),0.31 nM
same,koff,212579 I53HV (human),0.00013 s⁻¹
same,kon,212579 I53HV (human),420000 M⁻¹ s⁻¹
same,Kd,212579 G62HS (human),0.27 nM
same,koff,212579 G62HS (human),0.00011 s⁻¹
same,kon,212579 G62HS (human),420000 M⁻¹ s⁻¹
same,Kd,[3],0.92 nM
same,koff,[3],0.00014 s⁻¹
same,kon,[3],160000 M⁻¹ s⁻¹
same,Kd,[4],4.3 nM
same,koff,[4],0.0005 s⁻¹
same,kon,[4],120000 M⁻¹ s⁻¹
same,Kd,212579 E38HS (human),9.9 nM
same,koff,212579 E38HS (human),0.00273 s⁻¹
same,kon,212579 E38HS (human),280000 M⁻¹ s⁻¹
same,Kd,[5],0.56 nM
same,koff,[5],0.00014 s⁻¹
same,Kd,212579 H113HY (human),1.4 nM
same,koff,212579 H113HY (human),0.00036 s⁻¹
same,kon,212579 H113HY (human),260000 M⁻¹ s⁻¹
